Patent US20240141007A1
Where “and” joins values, the source holds several entries; their conditions need not be identical. Equal values may be shown once.

Key:
UCM23 = assay: cell-based or functional assay
UCM22 = assay: cell-based or functional assay

Est. kcat/KM (cleavage efficiency) (UCM23): 2000 M^-1S^-1 and 2100 M^-1S^-1
Est. kcat/KM (cleavage efficiency) (UCM22): 1800 M^-1S^-1 and 2100 M^-1S^-1
B1: MMP-7 (enzyme, UniProt P09237 95-267, looked up)
chain: YSLFPNSPKWTSKVVTYRIVSYTRDLPHITVDRLVSKALNMWGKEIPLHFRKVVWGTADIMIGFARGAHGDSYPFDGPGNTLAHAFAPGTGLGGDAHFDEDERWTDGSSLGINFLYAATHELGHSLGMGHSSDPNAVMYPTYGNGDPQNFKLSQDDIKGIQKLYGKRSNSRKK
